{"source": "the DeepSol protein solubility set", "data": [{"assay": "soluble on expression in E. coli; label from the status in PepcDB or PDB records", "values": [{"sequence": "MGSDKIHHHHHHMTTTTKKTAERLIKKYPNRRLYDTETSTYITLTDVKQLVLDQEDFKVIDAKSNEDLTRAILLQIILEEESGGLPMFSSSMLSQIIRFYGHAMQGMMGTYLEKNIQAFIDIQAKLADQSKNLYEGKAMNPEVWSQFMNMQAPMMQGMMTSYIEQSKNMFVQMQEQMQNQAKSMFATFPFTPGGAVNVAGGGNAPASPQGNPQGNPEPEKK", "soluble on expression in E. coli": "not soluble"}, {"sequence": "MGSDKIHHHHHHMGGAALPDNGWPADRIDTESAHSARIYDYIIGGKDYYPADKEAGDAMSREWPALPVHMRANRDWMNRAVAHLAKEAGIRQFLDIGTGIPTSPNLHEIAQSVAPESRVVYVDNDPIVLTLSQGLLASTPEGRTAYVEADMLDPASILDAPELRDTLDLTRPVALTVIAIVHFVLDEDDAVGIVRRLLEPLPSGSYLAMSIGTAEFAPQEVGRVAREYAARNMPMRLRTHAEAEEFFEGLELVEPGIVQVHKWHPDAATADGIRDEDIAMYGAVARKP", "soluble on expression in E. coli": "not soluble"}, {"sequence": "MAHHHHHHMLSQNVAKTTVPSYYMIRTNLPQRKPQNQWEGVYYFGGITKRQRHLILLQRKREREARMRAFSASCSNLLRLLEGDTQEQQQAKTQTIQLSSPHGPFDLAIRLAQHGLYQQASRIVDELHQQRALRMSHYGLLIDALSAPCLGQRILYGSAQCDPALTYKLLGDENGEERAQEAHRWFDMAFALLTTECRMSGSEHRLPQATAAATHLVNALMRALLTCGYTHVSAVPDAVYDRMGLMGISPTISTYELVMLALSLQGNMKEAESVFSFLRRHHNEHVTIGSFNALLLGHRECRQFDRCDAIWQELVDRRWPRASTLTAELYLRSIVDHSYTPTSGPLQRFGNINVVEKKKIPLVLAQMDDLGIPRAHLSRPLMDEVEDALRKFHIYKSRYYEWGRAVKQFNFIEFRRRNGWMYDLHLMKNTTKQVGPLRDFNQPDATQAPVATVEIPAFFNERPAWEQPPLEETLYVTESRERYDDVRSGDIYEDRTRSLHDRSPTWMNEVPETRYDHLYGVNHPDIAKIGIRRHLNAEYVNRKEVVERDAALMKKNLSTGRRLRRKVESSRTHRNAGSMSGAAPASASR", "soluble on expression in E. coli": "not soluble"}, {"sequence": "MSLSNYSTGELAKLCNVTTRTIQYYDRKGILKPQGFTEGKRRVYTEQQRQTLELILLLKDLGCALSDIDMLLKGEGTLKTLNTLLTMKQQEINQQVKQQQAVLNKIKNVQYYVNEASTSPITHLKDIEHVMSKSAEGHHHHHH", "soluble on expression in E. coli": "soluble"}, {"sequence": "MGSDKIHHHHHHMLSYYGRLSSEVYDIDKPIDHSFRDVEFYIDRLNLCRGHILEPATGTGRVLVPLLEKGFKVDGFDSSKDMLNICRDNCRKKGLNPKLFEAKMESFIQDTRYDAIIVPAGTFLLLHQRADSIRALQNFHKHLCTGGRLIIDILMQTDFSTGTVSTRTWVCSNGDLITLESKVVEVDYINQYTVSHNRYEKWREGVLIQTELERFPLRWYGLEEFKLILESTGFKDIVISSDYKFGQYPSNVKDVITFEAVAIN", "soluble on expression in E. coli": "not soluble"}, {"sequence": "MGSDKIHHHHHHMDSYFLGVSLESLKSLPRQTNHLRLGLAMWSHYHWQDSVYGSTTKQAERLARYATIFNTVEGNTSFYATPNAQTMMNWLRATPDDFRFTFKLPQTITHQKQLQHCQQELLQFFQVMSPLAEKTGLWKIQLPAHFGPENLPALAQFLNQVPQGLTYGVEVRHAAFFAKGEAERALNRLLMDKQVNRIIMDSRPLFALPPANEAIIDTHKKKPRVPVHAIATANTPVVRFIGQPDDACSCTTRAARR", "soluble on expression in E. coli": "not soluble"}, {"sequence": "MSLDSRTELKEIAGVAKRLTLLYVEDDIPTRRFLKRRLEEIFGVVAEAANGEEGLKRFLQGGIDLVISDNIMPFMDGIEMIREIRRVDTRLPIILTTAFIDTDYLMEAINLGVTQFVAKPISMDLLHNAIQMAIQRVVLDNLTRKAKEQEIELLRFQDRYHSLQQESARRKERNLIKNDHYLQTIQGKEGEEWVLDALHRSLEILSGDSYSVRGLDEGRALLFIVDGMGKGLSASVTTTLSIAFLNYLIDERIAQGARVELGSLVGDYLRFIQKELLEEEIISAGFYDFDFKRERLSYITFGMPSMLWVNSQGECERIKSSSPPLMKYSLPPLPQEICIQDLEKILLYSDGLNEALLDEETIYGEILEEELLWNRFLSEMNRRFRSRVKDVDDDITAFWVRRVPQNPSASRSYEIKSSLLEVHRLSDTIEEGLESFGIFDLEASTRFMTALTEMLMNAYEHGSLGVERLTKDQLIQEGSYDEYLAKESKPHRRIRVRLRRYEEGEATLLTCEVEDEGRGFDTQTLLQNLRNEPETLTSGRGIRLTKGLVDHLCFKKGGRVSQFTVVAREALFGNEGHHHHHH", "soluble on expression in E. coli": "not soluble"}, {"sequence": "MQDPYVKEAENLKKYFNAGHSDVADNGTLFLGILKNWKEESDRKIMQSQIVSFYFKLFKNFKDDQSIQKSVETIKEDMNVKFFNSNKKKRDDFEKLTNYSVTDLNVQRKAIDELIQVMAEFSTEEQQEGPYVKEAENLKKYFNAGHSDVADNGTLFLGILKNWKEESDRKIMQSQIVSFYFKLFKNFKDDQSIQKSVETIKEDMNVKFFNSNKKKRDDFEKLTNYSVTDLNVQRKAIHELIQVMAELSPAAKTGKRKRSQMLFRG", "soluble on expression in E. coli": "soluble"}, {"sequence": "KVIAGLYQRAFQHLSEAVQAAEEEAQPPSWSCGPAAGVIDAYMTLADFCDQQLRKEEENASVIDSAELQAYPALVVEKMLKALKLNSNEARLKFPRLLQIIERYPEETLSLMTKEISSVPCWQFISWISHMVALLDKDQAVAVQHSVEEITDNYPQAIVYPFIISSESYSFKDTSTGHKNKEFVARIKSKLDQGGVIQDFINALDQLSNPELLFKDWSNDVRAELAKTPVNKKNIEKMYERMYAALGDPKAPGLGAFRRKFIQTFGKEFDKHFGKGGSKLLRMKLSDFNDITNMLLLKMNKDSKPPGNLKECSPWMSDFKVEFLRNELEIPGQYDGRGKPLPEYHVRIAGFDERVTVMASLRRPKRIIIRGHDEREHPFLVKGGEDLRQDQRVEQLFQVMNGILAQDSACSQRALQLRTYSVVPMTSSDPRAPPCEYKDWLTKMSGKHDVGAYMLMYKGANRTETVTSFRKRESKVPADLLKRAFVRMSTSPEAFLALRSHFASSHALICISHWILGIGDRHLNNFMVAMETGGVIGIDFGHAFGSATQFLPVPELMPFRLTRQFINLMLPMKETGLMYSIMVHALRAFRSDPGLLTNTMDVFVKEPSFDWKNFEQKMLKKGGSWIQEINVAEKNWYPRQKICYAKRKLAGANPAVITCDELLLGHEKAPAFRDYVAVARGSKDHNIRAQEPESGLSEETQVKCLMDQATDPNILGRTWEGWEPWM", "soluble on expression in E. coli": "soluble"}, {"sequence": "SETWSVEQVCSWLVEKNLGELVHRFQEEEVSGAALLALNDRMVQQLVKKIGHQAVLMDLIKKYKQNTQGLKSPENPKKAALVMQTEAARDYRDKESSSPARHGEQMPSFYPAENLDNGLIDQRVLKQRRNVKQILARSKALQWTKSYVLPEFPYDVKCMLAEQKCPDHSMRIRIIEFLQADMTKYLEGSLYPSTQQYNDVVNALLQAHPFLDEDGCGFAGV", "soluble on expression in E. coli": "soluble"}, {"sequence": "MVNGSLGSRETETSAVKMGKDNKEHKESKESKTVDNYEARMPAVLPFAKPLASKKLNKKVLKTVKKASKAKNVKRGVKEVVKALRKGEKGLVVIAGDISPADVISHIPVLCEDHSVPYIFIPSKQDLGAAGATKRPTSVVFIVPGSNKKKDGKNKEEEYKESFNEVVKEVQAL", "soluble on expression in E. coli": "soluble"}, {"sequence": "MSKFGGATAKVIKGALKVRQTRAALTLTNEAVSRIRVLLAQQNDANALKIGVRQKGCNGLTYTLEYAKDKQKFDEEVEQDGIKVWIEPKAQLSLLGSEMDYVTDKLSSEFVFRNPNIKGTCGCGESFSI", "soluble on expression in E. coli": "not soluble"}, {"sequence": "MGLCVSKGSTASSPQHYAVRYTEQVTPSPSPSVASTSPSLHDSTAIGSPLARRSVLLPHEVQQAAYQLAMRLNGRAIEDASDRKRLVDATATVHETRLALHRGRGKVDSDLRLSNGRSATYSSLSYCLGEDDENLLAGSALAAGAGNCDHNAAINTRRHAVRMEDGGQMMTVRDYEQTHLYALYQPPNSAEADESTVVLDSWGDGPAVLLRDSHWAESYGTSTHVIERFDKPDATDALARTNAFRAEIENPQTALHANARELETAFLANPAPGDIFSAMPVIAPHLAESTRRRLQECSPRTRNVLAADAARDAYGLDDAQANSPRTTKAILKEAKRLDALGRPPLSW", "soluble on expression in E. coli": "not soluble"}, {"sequence": "MVSLCKLFGVTKQAFYKYVDHSTDSSARERFVLEFVKRVRSKDPGIGGMKLWLMYRNEFGTSQAFVGRDCFCAILSKYKLTIRKRFRAPRTTDSSHHLPQYPDLTRTLLLEHPDQLWVSDITYITIWLPDGSYVFCYLSLVTDAYTKEIIGYCVGDTLGSCYTVEALEMAVRRIAAKEIKGLIHHSDRGVQYASADYIAILRHNGILPSMTEDGNPKDNAIAERVNGIIKNELLQGMRFSSIQEVRKAVATAVHFYNNERPHMSLDMLTPVQAGEMQGPIRKRWISYREKYLNVALA", "soluble on expression in E. coli": "not soluble"}, {"sequence": "MPLADIADVDIDPKGVFKYILIQVTDNSTKQQKFVVRGYYRCSFHDDILQETKSSAPSDLKLKCVGGGRIKHDEIGKDILVYGYSYGYGRADHQIAVDILKQKYPDYNIHFSNDGY", "soluble on expression in E. coli": "not soluble"}, {"sequence": "MGSDKIHHHHHHMAFTSDSLAIFLAVLDAGSFSAAARKLGRVPSAVSMAIAQLEAELDLPLFDRATRKALPTNAALALEPQARQVICQLNLLDAQALQLHKGLEKRLTIAMAPELQTGRWSQPLEILAQAFPSLEVEVRSATQTEAIRLLHDGSVQLALVFERPGIDERESFLEAGSQLLVAVASPRHPAGQNSGSPLPEEAFAEQRQIIVASGKATGSDPRMVLSRRIWLTDSYLATLDLVQSGLGWAYLPQPLVEPLIASGALAEVRFDNMANRLRLWVDIIWIKSRPLGLGARRYLEVMRQLFEKEPPRA", "soluble on expression in E. coli": "not soluble"}, {"sequence": "MPISELEKKWTGLTFEIAAEEMRRLKSEPTDRERLKLYALYKQALHGDIPNEDVYPVPAGDEVGRKKYAAWKSQKGANSEKCRADYVAIAEEMIKKYGRNIVRCKWNSEVWSVDY", "soluble on expression in E. coli": "soluble"}, {"sequence": "GSRATVFKLGLFKSLFLCSFHDITRLFKNDKTTNQQWVLAVFGLAEVFFEASFELLKKQCSFLQMQKRSHEGGTCAVYLICFNTAKSRETVRNLMANMLNVREECLMLQPPKIRGLSAALFWFKSSLSPATLKHGALPEWIRAQTTLN", "soluble on expression in E. coli": "soluble"}, {"sequence": "SLPHCETLLLEPIEGVLRITLNRPQSRNAMSLAMVGELRAVLAAVRDDRSVRALVLRGADGHFCAGGDIKDMAGARAAGAEAYRTLNRAFGSLLEEAQAAPQLLVALVEGAVLGGGFGLACVSDVAIAAADAQFGLPETSLGILPAQIAPFVVRRIGLTQARRLALTAARFDGREALRLGLVHFCEADADALEQRLEETLEQLRRCAPNANAATKALLLASESGELGALLDDAARQFAEAVGGAEGS", "soluble on expression in E. coli": "not soluble"}, {"sequence": "SEDKKKKRSPKPCLTQQAQAPGTLRRVPVPTSHSGSLALGLPHLPSPKQRAKFKRAGKEKCRPVLAGGGGGSAGTPLQHSFLTEVTDVYEMEGGLLNLLNDFHSGRLQAFGKECSFEQLEHVREMQEKLARLHFSLDVCGEEEDEEEEEDGVTEGLPEEQKKTMADRNLDQLLSNLEDLSNSIQKLHLAENAEPEDQPAA", "soluble on expression in E. coli": "soluble"}, {"sequence": "MLMVVPLSEMGPGDKGIVVNILGGHNARQKLVSMGLTPGATIQVLESHPMGPIIISVGGVRFAIGKGLAGRVMVRKL", "soluble on expression in E. coli": "soluble"}, {"sequence": "MGSSHHHHHHSSGLVPRGSHMKDTEDAFGHALMDYADGKCSYEMVETRNGKIDVTSISYYFRDHDQWPSMEREAIRYAKGRVVDVGAGAGRHSLYLQDQGFDVTALDISPLAVEVMKHRGVKNAKIASIDEVEPGWDTMILLGNNFGLMRTIDEAMAFLRRFYSESSDDARIIAETTDPLSAGFQSDKGYPGELEIRVIYREYRSEWFRYLLADRQKLREIIKDTGWKIDHFYDIADVDVYCFVLSK", "soluble on expression in E. coli": "soluble"}]}]}
